Data reported in publication PMC5865211, “The orphan GPR50 receptor promotes constitutive TGFβ receptor signaling and protects against cancer development” (Nature Communications, 2018).

B1: TβRI-Renilla luciferase 8 (Rluc8) fusion protein (receptor, UniProt P36897 34-503, looked up)
chain: LQCFCHLCTKDNFTCVTDGLCFVSVTETTDKVIHNSMCIAEIDLIPRDRPFVCAPSSKTGSVTTTYCCNQDHCNKIELPTTVKSSPGLGPVELAAVIAGPVCFVCISLMLMVYICHNRTVIHHRVPNEEDPSLDRPFISEGTTLKDLIYDMTTSGSGSGLPLLVQRTIARTIVLQESIGKGRFGEVWRGKWRGEEVAVKIFSSREERSWFREAEIYQTVMLRHENILGFIAADNKDNGTWTQLWLVSDYHEHGSLFDYLNRYTVTVEGMIKLALSTASGLAHLHMEIVGTQGKPAIAHRDLKSKNILVKKNGTCCIADLGLAVRHDSATDTIDIAPNHRVGTKRYMAPEVLDDSINMKHFESFKRADIYAMGLVFWEIARRCSIGGIHEDYQLPYYDLVPSDPSVEEMRKVVCEQKLRPNIPNRWQSCEALRVMAKIMRECWYANGAARLTALRIKKTLSQLSQQEGIKM
notes: TGFβ receptor type I; In the homomer BRET row the second copy of TβRI carried YFP (TβRI-YFP) instead of Rluc8; also called TβRI-Rluc8; source: HEK293T, transfected, in intact cells

Key:
[1] = biological target: the molecule itself; test: FRET or BRET; BRET donor saturation in intact HEK293T cells; fixed amount of TβRI-Rluc8, increasing amounts of YFP fusion; no TGFβ
[2] = biological target: B1; test: as above; conditions: partners not purified

Binder	BRET50 [1]	BRET50 [2]
B1	1.34 ± 0.185	
GPR50Δ4-YFP (receptor, human, UniProt Q13585 1-617, looked up, also called GPR50-YFP; source: HEK293T, transfected, in intact cells) MGPTLAVPTPYGCIGCKLPQPEYPPALIIFMFCAMVITIVVDLIGNSMVILAVTKNKKLRNSGNIFVVSLSVADMLVAIYPYPLMLHAMSIGGWDLSQLQCQMVGFITGLSVVGSIFNIVAIAINRYCYICHSLQYERIFSVRNTCIYLVITWIMTVLAVLPNMYIGTIEYDPRTYTCIFNYLNNPVFTVTIVCIHFVLPLLIVGFCYVRIWTKVLAARDPAGQNPDNQLAEVRNFLTMFVIFLLFAVCWCPINVLTVLVAVSPKEMAGKIPNWLYLAAYFIAYFNSCLNAVIYGLLNENFRREYWTIFHAMRHPIIFFSGLISDIREMQEARTLARARAHARDQAREQDRAHACPAVEETPMNVRNVPLPGDAAAGHPDRASGHPKPHSRSSSAYRKSASTHHKSVFSHSKAASGHLKPVSGHSKPASGHPKSATVYPKPASVHFKADSVHFKGDSVHFKPDSVHFKPASSNPKPITGHHVSAGSHSKSAFSAATSHPKPIKPATSHAEPTTADYPKPATTSHPKPTAADNPELSASHCPEIPAIAHPVSDDSDLPESASSPAAGPTKPAASQLESDTIADLPDPTVVTTSTNDYHDVVVIDVEDDPDEMAV		0.031 ± 0.01
TβRII-YFP (receptor, UniProt P37173 23-567, looked up, TGFβ receptor type II; also called TβRII-yellow fluorescent protein fusion; source: HEK293T, transfected, in intact cells) TIPPHVQKSVNNDMIVTDNNGAVKFPQLCKFCDVRFSTCDNQKSCMSNCSITSICEKPQEVCVAVWRKNDENITLETVCHDPKLPYHDFILEDAASPKCIMKEKKKPGETFFMCSCSSDECNDNIIFSEEYNTSNPDLLLVIFQVTGISLLPPLGVAISVIIIFYCYRVNRQQKLSSTWETGKTRKLMEFSEHCAIILEDDRSDISSTCANNINHNTELLPIELDTLVGKGRFAEVYKAKLKQNTSEQFETVAVKIFPYEEYASWKTEKDIFSDINLKHENILQFLTAEERKTELGKQYWLITAFHAKGNLQEYLTRHVISWEDLRKLGSSLARGIAHLHSDHTPCGRPKMPIVHRDLKSSNILVKNDLTCCLCDFGLSLRLDPTLSVDDLANSGQVGTARYMAPEVLESRMNLENVESFKQTDVYSMALVLWEMTSRCNAVGEVKDYEPPFGSKVREHPCVESMKDNVLRDRGRPEIPSFWLNHQGIQMVCETLTECWDHDPEARLTAQCVAERFSELEHLDRLSGRSCSEEKIPEDGSLNTTK		0.046 ± 0.008
